Square brackets hold non-standard residues; d marks the D form. Primed or numbered codes have the meaning given here. Side chains are listed from the residue outwards. * marks the point of attachment. IRDye800CW′ = near-infrared fluorescent dye (LiCor), attached as the maleimide; Cy5 = Cy5 near-infrared fluorescent dye; Butanoyl(4-Ph) = O=C(CCCc1ccccc1)*; Mpa = O=C(O)CCS
How the values were obtained:
MC1RL-800 = target: T1, MC1RL-800; assay: competition binding with Eu-NDP-α-MSH on A375/hMC1R cells
T1 chain: {Butanoyl(4-Ph)}-H[dF]RWGK([Mpa-IRDye800CW′])-NH2

MC1RL-Cy5 = target: T2, MC1RL-Cy5; assay: as above
T2 chain: {Butanoyl(4-Ph)}-H[dF]RWGK([Mpa-Cy5])-NH2

B1: MC1R (protein)
chain: MAVQGSQRRLLGSLNSTPTAIPQLGLAANQTGARCLEVSISDGLFLSLGLVSLVENALVVATIAKNRNLHSPMYCFICCLALSDLLVSGSNVLETAVILLLEAGALVARAAVLQQLDNVIDVITCSSMLSSLCFLGAIAVDRYISIFYALRYHSIVTLPRARRAVAAIWVASVVFSTLFIAYYDHVAVLLCLVVFFLAMLVLMAVLYVHMLARACQHAQGIARLHKRQRPVHQGFGLKGAVTLTILLGIFFLCWGPFFLHLTLIVLCPEHPTCGCIFKNFNLFLALIICNAIIDPLIYAFHSQELRRTLKEVLTCSW
MC1RL-800
  Ki: 0.4 nM
MC1RL-Cy5
  Ki: 0.3 nM
